The target of the assay is human serum albumin (human) (UniProt P02768). As to the kind of experiment: ultrafiltration.

With “interleukin-1 receptor antagonist in fusion to albumin binding domain (IL-1Ra-ABD) (from UniProt P18510 26-177)”, the percent bound worked out at 78% and the percent released from HSA in the first 50 h is 80%.

Source of the values: article PMC11257196.
